± gives the uncertainty stated by the source.

A short description of one data set: amyloid nucleation score (Sup35N fusion, yeast selection) (log enrichment); library NNK1; higher = more nucleation; inactive = no reads after selection. The procedure, abridged:
(§1)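 Sup35N was fused to peptides of 20 random codons and expressed in psi-negative yeast, which were induced with 100 μM copper sulfate for 24 hours and then grown on medium lacking adenine and uracil for 7 days at 30°C. Plasmid inserts from input and output were sequenced on Illumina. The nucleation score is the DiMSum log enrichment of output over input reads, centred on the mode score of non-aggregating sequences. Sequences with under 100 input reads were left out, and random libraries had three technical output replicates.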
For SWTKVHLLVQAL, the amyloid nucleation score was -1.14 ± 0.86.

In turn, HANLGFS gave an amyloid nucleation score of -0.742 ± 0.78.

Consider VSQCS, for which the amyloid nucleation score is 0.238 ± 0.54.

Substance MRISMSVSLLFSYSQYVKLE showed an amyloid nucleation score of -0.238 ± 0.9.

In turn, TLDLWNVRFC returned an amyloid nucleation score of -0.057 ± 1.4.

The substance YYNFCMDRRLLDNGTNGSKS came in with an amyloid nucleation score of -0.016 ± 1.7.

With RFNREFMSSSVLRSWNDGYG, the amyloid nucleation score was -0.635 ± 0.62.

TSILAKNIIYCHYVGFPLGC displayed an amyloid nucleation score of 5.97 ± 0.093.

The substance LDNLWYL gave an amyloid nucleation score of 0.623 ± 0.88.

In the case of MYASRNNFNSFTGYRYSSVS, the amyloid nucleation score was -0.077 ± 0.21.

Turning to WTQAPDSAVGDGWGSNGSEA, the amyloid nucleation score is 0.013 ± 0.47.

WCYVYRSRRVSMTSWVLRTQ registered an amyloid nucleation score of 0.19 ± 0.26.

The substance KWTLTRLYVACRYNDHSRLS registered an amyloid nucleation score of 1.07 ± 0.39.

The substance RGRPLLGRMRFSSAGRAAFW returned an amyloid nucleation score of -0.418 ± 1.5.

The substance RDMVKLHVHTLHCNDDILGL gave an amyloid nucleation score of -0.896 ± 0.62.

YKIVIKSGQSAN came in with an amyloid nucleation score of -0.252 ± 0.28.

Substance WLTKSEN came in with an amyloid nucleation score of -0.151 ± 0.27.

For the substance SLPFVTS, the amyloid nucleation score was -0.319 ± 0.71.

In turn, SMSHVWL yielded an amyloid nucleation score of -1.25 ± 1.5.

FFGVLNIPNFCVSMF yielded an amyloid nucleation score of 0.645 ± 0.69.

Substance VTTYLG had an amyloid nucleation score of -0.499 ± 0.74.

Regarding PILFYDQSFLILWQINGAGG, the amyloid nucleation score result was “inactive”.

In turn, WAVGVRSQLWVARQAKVMGG gave an amyloid nucleation score of 0.741 ± 0.69.

NGSADNIIVYGYDANLRWVR returned an amyloid nucleation score of 0.262 ± 0.43.

FSYRWGLVFSFRDVKLL had an amyloid nucleation score of 2.27 ± 0.11.

Consider PSSNLRFFTLNFAFLVPISS, for which the amyloid nucleation score was -0.521 ± 0.64.

Substance TTCSVVRDFYSLIFCTKCPY had an amyloid nucleation score of 4.03 ± 0.063.

Substance LNCWLNRSVYVRLNRQDGKT came in with an amyloid nucleation score of 2.5 ± 0.31.

Consider PCVQSHMCYYNMSGITKGFR, for which the amyloid nucleation score is -0.332 ± 0.43.

SGFAVLKIVMAFHLTLEHQF registered an amyloid nucleation score of 0.479 ± 0.67.

As for HRTDYENFPSSKSRRMLVRV, the amyloid nucleation score was found to be 0.436 ± 1.2.

MIRPVFLVFVYMLFCLGNCT had an amyloid nucleation score of 0.383 ± 0.28.

AWKLRVFRDSAL showed an amyloid nucleation score of 0.608 ± 1.1.

On to FVGSRRGLARVAEYGWLYHG, for which the amyloid nucleation score was -0.464 ± 0.74.

On to SYQSDDLWQETKPALSPLLE, for which the amyloid nucleation score turned out to be 0.119 ± 0.46.

Turning to TVYYFG, the amyloid nucleation score came out at 1.18 ± 0.19.

Consider RLMVRGLDGKTFHSFFDSIL, for which the amyloid nucleation score entry was “inactive”.

As for HPSSKLSRMCLD, the amyloid nucleation score was 0.717 ± 0.93.

Regarding KCIGKHEAVMKIFNWDEENW, the amyloid nucleation score stood at 1.73 ± 0.49.

Take LTYCDIVLSMMSLDEKSDYD: the amyloid nucleation score result is “inactive”.

For the substance FTFKWMGSPWLWR, the amyloid nucleation score came out at 0.485 ± 1.2.

Regarding HRRFLAPME, the amyloid nucleation score was 0.385 ± 0.3.

SSLVATPLGLELIKGRSSSL: the amyloid nucleation score was 0.57 ± 1.2.

In turn, LLSVF showed an amyloid nucleation score of 0.484 ± 0.74.

In the case of FNLSLLRSSCAVH, the amyloid nucleation score was 1.04 ± 0.62.

As to IVGSSQLSYLGLAFSYGVQV, the amyloid nucleation score was -0.903 ± 1.7.

LGWDDVVY showed an amyloid nucleation score of 0.314 ± 0.85.

Regarding LVFWRLCERHRWLRGFESA, the amyloid nucleation score is -1.06 ± 1.5.

The substance YWYNNAWASLWFQAWVDWYI gave an amyloid nucleation score of 0.446 ± 0.33.

As to TKGFLSNGFLVWPVCIVILW, the amyloid nucleation score was determined as 0.387 ± 0.77.

On to TVNHFGLEPCVTKIMGLY, for which the amyloid nucleation score worked out at 0.213 ± 0.74.

As to KLLVLLNN, the amyloid nucleation score result is “inactive”.

With SLVSGSVGCLGRYQFRESKP, the amyloid nucleation score was 0.422 ± 0.45.

The substance GVKSQYALNKLGCGELWLRL registered an amyloid nucleation score of 0.364 ± 0.28.

As for RFCSKRMRVLIFFGLV, the amyloid nucleation score was -0.165 ± 0.34.

With ISWYGFAT, the amyloid nucleation score result is “inactive”.

For the substance LQYSKGYDRVRDPILHTVN, the amyloid nucleation score was determined as 0.389 ± 0.37.

The substance GQQLCVIFYSTCDSYKMLSD registered an amyloid nucleation score of 3.26 ± 0.089.

On to EYFRSTCRRATLSDPSMMHH, for which the amyloid nucleation score was 0.185 ± 0.35.

Turning to HSFMYKENAGMSGTLR, the amyloid nucleation score was determined as 0.187 ± 0.48.

Regarding DDNGPTYR, the amyloid nucleation score result was “inactive”.

Regarding HYNFKDMNYKPLIVIEMHEW, the amyloid nucleation score was 5.33 ± 0.055.

Regarding MLSGP, the amyloid nucleation score is -0.161 ± 0.67.

VRLFV: the amyloid nucleation score came out at 2.14 ± 0.65.

Substance WIFQY gave an amyloid nucleation score of 1.43 ± 0.72.

Consider YFIFFLSNVFASSVIILMYM, for which the amyloid nucleation score was -0.071 ± 0.36.

QNTSEYSLRRERSR gave an amyloid nucleation score of -0.341 ± 0.5.

The substance WRVHSNKRKLGSCLLTGTIF yielded an amyloid nucleation score of 0.656 ± 0.5.

For YVYNFMYTVNCMVEPFWLEC, the amyloid nucleation score turned out to be 7.12 ± 0.048.

On to AKKWNSSMAKCNFNCLKSVW, for which the amyloid nucleation score was -2.05 ± 2.7.

DDNSMSDTHLL registered an amyloid nucleation score of 1.13 ± 0.25.

For FALKIVGVVPVAVGMTIDDW, the amyloid nucleation score is 0.052 ± 0.85.

For the substance LSLFCVLMY, the amyloid nucleation score came to 2.1 ± 0.27.

QCVRLDVTT: the amyloid nucleation score is -2.14 ± 2.1.

KLLPYMYCHYN registered an amyloid nucleation score of 1.27 ± 0.39.

Consider LRIHGSTLRISLW, for which the amyloid nucleation score is 1.64 ± 0.28.

The substance WNSFTELRAHMLYHLKKIII displayed an amyloid nucleation score of 1.72 ± 0.22.

PVLKPGFL yielded an amyloid nucleation score of -0.266 ± 0.5.

For VMSSMMWYSYHMFHPYNAFE, the amyloid nucleation score is 1.28 ± 0.79.

As for RSFVLLGFPSY, the amyloid nucleation score is -0.882 ± 0.66.

In turn, PWYTRLRRK yielded an amyloid nucleation score of -0.338 ± 1.4.

RCGRAINGVQCVHWFVMSEG returned an amyloid nucleation score of 0.429 ± 0.58.

As to IVNFRVNRPSL, the amyloid nucleation score amounted to 0.205 ± 0.31.

On to ISICTMLLFSPVS, for which the amyloid nucleation score is -0.894 ± 0.83.

Consider IAGFEVARPSNSKTFFPSKF, for which the amyloid nucleation score came to 2.07 ± 0.14.

Regarding VFAMPYYSCGVLWNRGNW, the amyloid nucleation score came to 0.566 ± 0.48.

With VLDVVVCSSWGDLKRNLRPC, the amyloid nucleation score came out at 3.29 ± 0.11.

With CRRIWA, the amyloid nucleation score was -0.377 ± 0.34.

IMFYMTVDGCLSVEYIFR displayed an amyloid nucleation score of -0.704 ± 0.42.

For QMLQVPYQSFVALGVAWVRT, the amyloid nucleation score came to 0.646 ± 0.66.

RSQCQAGCELYGFA yielded an amyloid nucleation score of -0.303 ± 0.78.

On to YFEFSIHSQRYIQWSHYLVL, for which the amyloid nucleation score is -1.05 ± 1.7.

In turn, SGNCSVSW had an amyloid nucleation score of 0.755 ± 0.97.

In turn, LWAFIIGIVSTTLLGYKPFH displayed an amyloid nucleation score of -0.344 ± 1.1.

The substance WVTVPNTKKTNVLFGQWTIV had an amyloid nucleation score of -0.379 ± 0.39.

In the case of KYVSYQGQVDCSCKSVL, the amyloid nucleation score was -0.182 ± 0.45.

As to VSGLAGPEM, the amyloid nucleation score worked out at 0.412 ± 0.56.

The substance VWRSFSGNITCMLFYNFPVR gave an amyloid nucleation score of -0.621 ± 0.95.

LDVTSDFCTMI registered an amyloid nucleation score of 0.5 ± 0.38.

Substance MSLSAVSNMVLMKGVGMR yielded an amyloid nucleation score of -0.73 ± 0.93.

Regarding YWPPGFAVS, the amyloid nucleation score came out at 1.01 ± 0.81.

As to VVQGVTCSLIMYSTRNCLFR, the amyloid nucleation score was -0.444 ± 1.6.

For the substance VNLNVFLRR, the amyloid nucleation score came out at 0.059 ± 0.45.

For FPSLFFLLA, the amyloid nucleation score result was “inactive”.

For FSTFYY, the amyloid nucleation score result is “inactive”.

In the case of RGSWIPVKQRLKVPQRDGLG, the amyloid nucleation score stood at 0.207 ± 0.28.

Consider LVNNSSCYHCQRLGQLEVNK, for which the amyloid nucleation score was 0.215 ± 0.33.

Regarding WLVLTMS, the amyloid nucleation score was found to be 0.086 ± 0.36.

VKLDIVFLMVFGPLCSESPF yielded an amyloid nucleation score of 1.83 ± 0.24.

As for SRPYLLRLR, the amyloid nucleation score was 0.455 ± 0.57.

Substance LVFTNTLSTIFNNLHCYMWE had an amyloid nucleation score of 4.49 ± 0.12.

As to LILSSCHERGSGGVFWTDHV, the amyloid nucleation score is 0.924 ± 0.64.

VMHLWLVYCHTTVS came in with an amyloid nucleation score of 0.755 ± 0.73.

On to WREYRLWDEG, for which the amyloid nucleation score was -0.208 ± 0.36.

WRILYRC came in with an amyloid nucleation score of 0.41 ± 0.34.

Substance RSLNPVISFLN showed an amyloid nucleation score of -0.329 ± 0.69.

QLRNLFHFYTGITDSRFLLH returned an amyloid nucleation score of 1.93 ± 0.52.

As for IGCSCGLHT, the amyloid nucleation score entry is “inactive”.

A short description of another data set: amyloid nucleation score (Sup35N fusion, yeast selection) (log enrichment); library NNK2; higher = more nucleation; inactive = no reads after selection. The procedure, abridged: as §1
Substance HNLCGYLLVSVAWVLWWIRR showed an amyloid nucleation score of 2.61 ± 0.11.

Consider GGERMRSRKYEYGGWNMCYY, for which the amyloid nucleation score result is “inactive”.

Substance ILFGIPN had an amyloid nucleation score of -0.314 ± 0.24.

LSEFDHYDWVSSSTLFGFCC: the amyloid nucleation score was -1.13 ± 1.1.

In turn, FLWYGISVI registered an amyloid nucleation score of 0.02 ± 0.4.

Substance IVRRGAYSTGWMVMMLLQSL returned an amyloid nucleation score of 0.859 ± 0.8.

In turn, WWCMLFNGEGGDCDILDFSS gave an amyloid nucleation score of -0.385 ± 0.49.

In turn, PRLYTPILYCLLTRCKVYTT registered an amyloid nucleation score of 3.41 ± 0.051.

Consider DSDLLVTHMVMLYKHVE, for which the amyloid nucleation score stood at 3.79 ± 0.065.

With DYDNW, the amyloid nucleation score is -0.618 ± 1.1.

Take TCNSSGPMMRCLIHWETRHR: the amyloid nucleation score was 5.17 ± 0.093.

In turn, FTFFIRYLERDWPRLL yielded an amyloid nucleation score of -0.549 ± 0.74.

Regarding KKLALKVVVSNCFKK, the amyloid nucleation score is 5.991 ± 0.048.

Take VGWHPPVLTEYTMDQTAYTT: the amyloid nucleation score was 1.39 ± 0.29.

Consider YFFSISWTCYFR, for which the amyloid nucleation score worked out at 3.27 ± 0.044.

RFYIPLSYFMSEGDRSCKFI showed an amyloid nucleation score of -0.642 ± 0.61.

Consider ASGVNFGT, for which the amyloid nucleation score was -0.215 ± 0.45.

With IALQDSDFSLLWFMHVCWDE, the amyloid nucleation score is -0.463 ± 0.74.

For LDFHPVCRGMSSPCQCASMR, the amyloid nucleation score was 0.907 ± 0.2.

In the case of PFGMCSFTVVIYYGCFEDAH, the amyloid nucleation score was 0.519 ± 0.3.

As for HYSGGCSLPSVKERVGTSIG, the amyloid nucleation score is -0.604 ± 0.76.

Substance FHNLASFVRKSRVYQHKRNA had an amyloid nucleation score of -0.231 ± 0.63.

With RSWIGERIIYSSMRYQCAYL, the amyloid nucleation score is -1.42 ± 0.54.

Substance HDRIFSIKSWWCRSIWEVGV came in with an amyloid nucleation score of -1.79 ± 0.78.

Values taken from the supplement of paper PMC12042874.
